Laboratory results published in article PMC8009664.

Target: calmodulin (CaM), recombinant bovine 1-149 (UniProt P62157)
Assay: ITC, peptide titrated into CaM
Conditions: reference: unphosphorylated H1H2; sites S648

NHE1 (Na+/H+ exchanger 1, hNHE1) H1H2, 622-692 (from UniProt P19634) Akt-phosphorylated H1H2 (pS648)
KD: weaker; reference Kd,1 0.27 ± 0.07; Kd,2 560 ± 10
